Measurements as given in US20090246205A1 (Eli Lilly, published 2009).
One block for each binder: values may come before it.

How the values were obtained:
Recombinant RON-Fc [1] = target: T1, Recombinant RON-Fc (human, UniProt Q04912 25-571); assay: ELISA, recombinant human RON receptor immobilized on the plate
T1 construct: also called recombinant human RON receptor; MSP-R; not shown: Fc part of the bought RON-Fc (Sigma-Aldrich)
T1 sequence (looked up): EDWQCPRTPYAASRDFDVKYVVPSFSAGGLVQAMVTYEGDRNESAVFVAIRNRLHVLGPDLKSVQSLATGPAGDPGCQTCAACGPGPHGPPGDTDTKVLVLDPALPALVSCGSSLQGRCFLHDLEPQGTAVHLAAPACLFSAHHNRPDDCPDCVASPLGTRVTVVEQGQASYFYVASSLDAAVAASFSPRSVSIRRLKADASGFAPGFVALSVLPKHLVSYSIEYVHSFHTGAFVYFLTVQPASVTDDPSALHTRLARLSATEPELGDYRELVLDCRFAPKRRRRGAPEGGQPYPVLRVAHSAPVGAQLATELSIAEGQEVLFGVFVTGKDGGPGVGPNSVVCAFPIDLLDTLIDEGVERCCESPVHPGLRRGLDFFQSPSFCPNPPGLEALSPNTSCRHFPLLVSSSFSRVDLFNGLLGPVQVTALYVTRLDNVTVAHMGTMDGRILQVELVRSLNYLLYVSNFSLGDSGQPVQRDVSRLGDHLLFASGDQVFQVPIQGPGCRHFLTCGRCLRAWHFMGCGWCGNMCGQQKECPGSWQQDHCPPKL

Recombinant RON-Fc [2] = target: T1, Recombinant RON-Fc; assay: ELISA, blocking of the MSP/RON interaction
Procedure: ELISA to Detect Fab Antibodies That Block the MSP/RON Interaction. Maxi-sorp 96-well microtiter plates (Nunc) were coated with (1 μg/ml×100 μl) MSP (R&D Systems) at RT for 1.5 hours. After washing the wells, they were blocked with 3% PBS/milk. Anti-RON phage antibodies that were converted to Fab or full IgG were pre-incubated with RON-Fc (25 ng/well) at RT for 1 hour. The Fab/RON-Fc or IgG/RON-Fc mixtures were then added to the MSP-coated wells and allowed to incubate for 1.5 h at RT.
ELISA for Determination of IC50 and ED50 The ability of the anti-RON antibodies, IMC-41A10 and IMC-41B12, to bind to recombinant human RON receptor and to block the MSP/RON interaction were measured using ELISA.

Recombinant RON-Fc [3] = target: T1, Recombinant RON-Fc; assay: BIAcore 3000 SPR, RON-Fc immobilized, Fab or antibody injected
Procedure: BIAcore-Analysis. The binding kinetics of soluble Fab and antibody proteins to RON was determined by using a BIACORE 3000 (BIAcore, Piscataway, N.J.). Recombinant RON-Fc was immobilized onto a sensor chip, and Fab or antibody was injected at various concentrations. Sensorgrams were obtained and evaluated using BIA Evaluation 2.0 software to determine rate constants. The affinity constant, KD, was calculated from the ratio of the rate constants Koff/Kₒₙ. The “Kon, M⁻¹.S⁻¹” and “Koff, S⁻¹” rates of the interaction were used to determine the affinity (Kd, M) of the antibody/receptor interaction. […] For IMC-41B12, they were: 1e-10, 1.7e6 and 1.7e-4.

EC50 (Recombinant RON-Fc [1]): 0.1 nM
IC50 (Recombinant RON-Fc [2]): 2 nM
Kd (Recombinant RON-Fc [3]): 0.1 nM
koff (Recombinant RON-Fc [3]): 0.00017 s⁻¹
kon (Recombinant RON-Fc [3]): 1.7e+06 M⁻¹ s⁻¹
B1: IMC-41B12 (antibody, V domains shown)
VH: QVQLQESGPGLVKPSEILSLTCTVSGGSISSHYWSWVRQPPGKGLEWIGYIYYSGSTNYNPSLKSRVTISVDTSKNQFSLNLSSVTAADTAVYYCARIPNYYDRSGYYPGYWYFDLWGRGTLVTVSS
VL: QAVLTQPSSLSAPPGASASLTCTLRSGFNVDSYRISWYQQKPGSPPQYLLRYKSDSDKQQGSGVPSRFSGSKDASANAGILLISGLQSEDEADYYCMIWHSSAWVFGGGTKLTVLR
notes: also called IMC-14B12

EC50 (Recombinant RON-Fc [1]): 0.15 nM
IC50 (Recombinant RON-Fc [2]): 2 nM
Kd (Recombinant RON-Fc [3]): 1.5 nM
koff (Recombinant RON-Fc [3]): 0.00013 s⁻¹
kon (Recombinant RON-Fc [3]): 84000 M⁻¹ s⁻¹
B2: IMC-41A10 (antibody, V domains shown)
VH: EVQLVQSGGGLVKPGGSLRLSCAASGFTFSSYAMHWVRQAPGKGLEWVAVISYDGSNKYYADSVKGRFTISRDNSKNTLYLQMNSLRAEDTAVYYCARFSGWPNNYYYYGMDVWGQGTTVTVSS
VL: DVVMTQSPLSLPVTPGEPASISCRSSQSLLHSNGFNYVDWYLQKPGQSPHLLIYFGSYRASGVPDRFSGSGSGTDFTLKISRVEAEDVGVYYCMQALQTPPWTFGQGTKVEIR
notes: also called anti-RON IMC-41A10 antibody; IMC-14A10
